Assay results taken from the MegaScale stability set (Tsuboyama et al. 2023).

B1: EHEE_rd2_0191 (parent)
chain: TTEYTFTDDEEARRAIEELKKRGLTFRYEKHGTTWRVRVD

Variants of: B1
Assay: folding stability dG (cDNA display proteolysis); higher = more stable
Details: PBS, room temperature

| Variant | folding stability dG [kcal/mol] |
| --- | --- |
| TTEYTFTDDEEARRAIEELHKRGLTFRYEKHGTTWRVRVD [K20H] | 1.71 |
| TTEYTFTDDEEARRAIEELSKRGLTFRYEKHGTTWRVRVD [K20S] | 1.81 |
| TTEYTFTDDEEARRAIEELMKRGLTFRYEKHGTTWRVRVD [K20M] | 2.15 |
| TTEYTFTDDEEARRAIEELRKRGLTFRYEKHGTTWRVRVD [K20R] | 2.27 |
| TTEYTFTDDEEARRAIEELDKRGLTFRYEKHGTTWRVRVD [K20D] | 1.15 |
| TTEYTFTDDEEARRAIEELGKRGLTFRYEKHGTTWRVRVD [K20G] | 1.41 |
| TTEYTFTDDEEARRAIEELVKRGLTFRYEKHGTTWRVRVD [K20V] | 2.07 |
| TTEYTFTDDEEARRAIEELFKRGLTFRYEKHGTTWRVRVD [K20F] | 2.02 |
| TTEYTFTDDEEARRAIEELNKRGLTFRYEKHGTTWRVRVD [K20N] | 1.54 |
| TTEYTFTDDEEARRAIEELTKRGLTFRYEKHGTTWRVRVD [K20T] | 2.12 |
| TTEYTFTDDEEARRAIEELAKRGLTFRYEKHGTTWRVRVD [K20A] | 1.81 |
| TTEYTFTDDEEARRAIEELYKRGLTFRYEKHGTTWRVRVD [K20Y] | 1.99 |
| TTEYTFTDDEEARRAIEELCKRGLTFRYEKHGTTWRVRVD [K20C] | 2.56 |
| TTEYTFTDDEEARRAIEELLKRGLTFRYEKHGTTWRVRVD [K20L] | 2.15 |
| TTEYTFTDDEEARRAIEELWKRGLTFRYEKHGTTWRVRVD [K20W] | 1.75 |
| TTEYTFTDDEEARRAIEELIKRGLTFRYEKHGTTWRVRVD [K20I] | 2.42 |
| TTEYTFTDDEEARRAIEELEKRGLTFRYEKHGTTWRVRVD [K20E] | 1.86 |
| TTEYTFTDDEEARRAIEELQKRGLTFRYEKHGTTWRVRVD [K20Q] | 2 |
| TTEYTFTDDEEARRAIEELKKRGFTFRYEKHGTTWRVRVD [L24F] | 2.08 |
| TTEYTFTDDEEARRAIEELKKRGETFRYEKHGTTWRVRVD [L24E] | 1.1 |
| TTEYTFTDDEEARRAIEELKKRGITFRYEKHGTTWRVRVD [L24I] | 2.16 |

| Variant | folding stability dG [kcal/mol] |
| --- | --- |
| TTEYTFTDDEEARRAIEELKKRGVTFRYEKHGTTWRVRVD [L24V] | 2.14 |
| TTEYTFTDDEEARRAIEELKKRGYTFRYEKHGTTWRVRVD [L24Y] | 2.15 |
| TTEYTFTDDEEARRAIEELKKRGGTFRYEKHGTTWRVRVD [L24G] | 0.321 |
| TTEYTFTDDEEARRAIEELKKRGTTFRYEKHGTTWRVRVD [L24T] | 1.12 |
| TTEYTFTDDEEARRAIEELKKRGKTFRYEKHGTTWRVRVD [L24K] | 1.55 |
| TTEYTFTDDEEARRAIEELKKRGWTFRYEKHGTTWRVRVD [L24W] | 1.65 |
| TTEYTFTDDEEARRAIEELKKRGRTFRYEKHGTTWRVRVD [L24R] | 1.42 |
| TTEYTFTDDEEARRAIEELKKRGQTFRYEKHGTTWRVRVD [L24Q] | 1.27 |
| TTEYTFTDDEEARRAIEELKKRGSTFRYEKHGTTWRVRVD [L24S] | 1.18 |
| TTEYTFTDDEEARRAIEELKKRGMTFRYEKHGTTWRVRVD [L24M] | 1.91 |
| TTEYTFTDDEEARRAIEELKKRGHTFRYEKHGTTWRVRVD [L24H] | 1.46 |
| TTEYTFTDDEEARRAIEELKKRGATFRYEKHGTTWRVRVD [L24A] | 2 |
| TTEYTFTDDEEARRAIEELKKRGDTFRYEKHGTTWRVRVD [L24D] | 0.718 |
| TTEYTFTDDEEARRAIEELKKRGNTFRYEKHGTTWRVRVD [L24N] | 0.838 |
| TTEYTFTDDEEARRAIEEYKKRGLTFRYEKHGTTWRVRVD [L19Y] | 1.58 |
| TTEYTFTDDEEARRAIEEWKKRGLTFRYEKHGTTWRVRVD [L19W] | 1.94 |
| TTEYTFTDDEEARRAIEELKKRGLTFIYEKHGTTWRVRVD [R27I] | 2.29 |
| TTEYTFTDDEEARRAIEELKKRGLTFLYEKHGTTWRVRVD [R27L] | 1.74 |
| TTEYTFTDDEEARRAIEELKKRGLTFDYEKHGTTWRVRVD [R27D] | 1.62 |
| TTEYTFTDDEEARRAIEELKKRGLTFFYEKHGTTWRVRVD [R27F] | 2.29 |
| TTEYTFTDDEEARRAIEELKKRGLTFGYEKHGTTWRVRVD [R27G] | 1.37 |

| Variant | folding stability dG [kcal/mol] |
| --- | --- |
| TTEYTFTDDEEARRAIEELKKRGLTFEYEKHGTTWRVRVD [R27E] | 2.02 |
| TTEYTFTDDEEARRAIEELKKRGLTFAYEKHGTTWRVRVD [R27A] | 2.1 |
| TTEYTFTDDEEARRAIEELKKRGLTFKYEKHGTTWRVRVD [R27K] | 2 |
| TTEYTFTDDEEARRAIEELKKRGLTFHYEKHGTTWRVRVD [R27H] | 2.39 |
| TTEYTFTDDEEARRAIEELKKRHLTFRYEKHGTTWRVRVD [G23H] | 1.26 |
| TTEYTFTDDEEARRAIEELKKRELTFRYEKHGTTWRVRVD [G23E] | 0.428 |
| TTEYTFTDDEEARRAIEELKKRFLTFRYEKHGTTWRVRVD [G23F] | 0.765 |
| TTEYTFTDDEEARRAIEELKKRRLTFRYEKHGTTWRVRVD [G23R] | 1.18 |
| TTEYTFTDDEEARRAIEELKKRNLTFRYEKHGTTWRVRVD [G23N] | 1.4 |
| TTEYTFTDDEEARRAIEELKKRTLTFRYEKHGTTWRVRVD [G23T] | -0.314 |
| TTEYTFTDDEEARRAIEELKKRWLTFRYEKHGTTWRVRVD [G23W] | 0.206 |
| TTEYTFTDDEEARRAIEELKKRYLTFRYEKHGTTWRVRVD [G23Y] | 0.547 |
| TTEYTFTDDEEARRAIEELKKRDLTFRYEKHGTTWRVRVD [G23D] | 0.517 |
| TTEYTFTDDEEARRAIEELKKRLLTFRYEKHGTTWRVRVD [G23L] | 0.596 |
| TTEYTFTDDEEARRAIEELKKRMLTFRYEKHGTTWRVRVD [G23M] | 0.906 |
| TTEYTFTDDEEARRAIEELKKRALTFRYEKHGTTWRVRVD [G23A] | 0.759 |
| TTEYTFTDDEEARRAIEELKKRSLTFRYEKHGTTWRVRVD [G23S] | 0.756 |
| TTEYTFTDDEEARRAIEELKKRQLTFRYEKHGTTWRVRVD [G23Q] | 0.972 |
| TTEYTFTDDEEARRAIEELKKRKLTFRYEKHGTTWRVRVD [G23K] | 1.21 |
| TTEYTFTDDEEARRAIEELKKRCLTFRYEKHGTTWRVRVD [G23C] | 1.31 |
